Measurements as given in paper PMC8994517.

Molecular target: Human Hsp90α (human) (UniProt P07900)
Assay: cryo-EM structure

**Q.** For “MBP (maltose-binding protein)-GR ligand-binding domain (LBD) (F602S) (520-777) (from UniProt P04150 520-777) (domain or fragment)”, which stoichiometry N (GR per Hsp90 dimer) is on record?
**A.** 1
